Laboratory results reported in publication PMC13291817.
pKd: −log10 of the molar value.

Experiments:
[1] = target: RGH2-Exo70 domain (residues 1033-1637), purified from E. coli (barley (Hordeum vulgare)); assay: ITC; MicroCal PEAQ-ITC; […]; 25 °C; 20 mM HEPES pH 7.5, 150 mM NaCl, 5% glycerol; […]
[2] = target: RGH2^+-Exo70 domain (residues 1033-1637), purified from E. coli (barley (Hordeum vulgare)); assay: as above

Substance: AVR-Pii^Rb, purified from E. coli (natural protein)
- pKd [1]: 4.82
- pKd [2]: 5.51
